In assay [1] the target is human CCR8 (human) (UniProt P51685). Kind of assay: FACS, BODIPY-labelled antibody, HuT78.
For assay [2] the target is unchanged. As to the kind of experiment: cell-based or functional assay.
Assay [3] has as its target cynomolgus CCR8 (cynomolgus). Kind of assay: FACS, CHO-cynoCCR8. In general terms: In flow cytometry, cells or beads pass a laser one at a time.
For assay [4], the target named is human CCR8 (human) (UniProt P51685). Kind of assay: FACS, CHO-hCCR8.

The text below walks through data of patent US20230250178A1.

Sequence of cynomolgus CCR8 (cynomolgus) (O97665 other isoform, or with tags, fused parts or gaps): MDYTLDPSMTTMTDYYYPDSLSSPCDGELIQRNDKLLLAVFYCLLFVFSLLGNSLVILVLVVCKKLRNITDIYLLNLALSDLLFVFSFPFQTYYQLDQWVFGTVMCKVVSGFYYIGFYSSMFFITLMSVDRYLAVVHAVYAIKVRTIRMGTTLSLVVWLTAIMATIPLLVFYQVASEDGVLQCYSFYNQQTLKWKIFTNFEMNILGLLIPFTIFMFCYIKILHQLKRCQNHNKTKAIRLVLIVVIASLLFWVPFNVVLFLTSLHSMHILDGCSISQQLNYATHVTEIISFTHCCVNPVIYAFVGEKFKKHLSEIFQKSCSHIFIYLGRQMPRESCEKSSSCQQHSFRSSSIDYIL

B1: 433H (antibody, from another filing, V domains shown)
VH: EVQLVETGGGLVQPKGSLRLSCAASGFPFNTFAMNWVRQAPGKGLEWLARIRSKSNNYATYYADSVKDRFTISRDDSRRMLYLLMNNVKFEDTAIYYCVRGKENNYGYAMDYWGQGTSVTVSS
VL: DIVMTQAAPSVPVTPGESVSISCRSSQSLLHSNGNTYLYWFLQRPGQSPQLLIYRMSNLASGVPDRFSGSGSGTAFTLRISRVEAEDVGVYYCMQHLEYPFTFGIGTKLELKR
In the assay with human CCR8 (human) [1], B1 came in with an FACS HuT78 [MFI] of 50 MFI. In addition, in the assay with human CCR8 (human) [2], the IC50, Ca flux assay came out at 1.3 nM and the IC50, inhibition of CCL1 induced β-arrestin signaling was found to be 0.78 nM. The molecule also gave a concentration for a half-maximal effect (EC50) in assay [3] of 12.1 nM. Moreover, the concentration for a half-maximal effect (EC50) in the assay with human CCR8 (human) [4] turned out to be 2.8 nM.

What is called EC50 is the midpoint of the concentration-response curve.
